pKd: −log10 of the molar value.
Legend:
[1] = target: human tenascin-C (human) (UniProt P24821); experiment: BIAcore
[2] = target: human tenascin-C (human) (UniProt P24821); experiment: ELISA, biotinylated antibody, 2-3 moles biotin/antibody
[3] = target: human tenascin-C (human) (UniProt P24821); experiment: ELISA, biotinylated antibody, 7-10 moles biotin/antibody
[4] = target: human tenascin-C (human) (UniProt P24821); experiment: ELISA, biotinylated antibody, 15-20 moles biotin/antibody
[5] = target: human tenascin-C (human) (UniProt P24821); experiment: ELISA, biotinylated antibody, 3.5-5 moles biotin/antibody
[6] = target: human tenascin-C (human) (UniProt P24821); experiment: immunoreactivity of the batch used for biodistribution, 7-10 biotins/mole

Sequence of human tenascin-C (human) (P24821 23-2201 limits assumed): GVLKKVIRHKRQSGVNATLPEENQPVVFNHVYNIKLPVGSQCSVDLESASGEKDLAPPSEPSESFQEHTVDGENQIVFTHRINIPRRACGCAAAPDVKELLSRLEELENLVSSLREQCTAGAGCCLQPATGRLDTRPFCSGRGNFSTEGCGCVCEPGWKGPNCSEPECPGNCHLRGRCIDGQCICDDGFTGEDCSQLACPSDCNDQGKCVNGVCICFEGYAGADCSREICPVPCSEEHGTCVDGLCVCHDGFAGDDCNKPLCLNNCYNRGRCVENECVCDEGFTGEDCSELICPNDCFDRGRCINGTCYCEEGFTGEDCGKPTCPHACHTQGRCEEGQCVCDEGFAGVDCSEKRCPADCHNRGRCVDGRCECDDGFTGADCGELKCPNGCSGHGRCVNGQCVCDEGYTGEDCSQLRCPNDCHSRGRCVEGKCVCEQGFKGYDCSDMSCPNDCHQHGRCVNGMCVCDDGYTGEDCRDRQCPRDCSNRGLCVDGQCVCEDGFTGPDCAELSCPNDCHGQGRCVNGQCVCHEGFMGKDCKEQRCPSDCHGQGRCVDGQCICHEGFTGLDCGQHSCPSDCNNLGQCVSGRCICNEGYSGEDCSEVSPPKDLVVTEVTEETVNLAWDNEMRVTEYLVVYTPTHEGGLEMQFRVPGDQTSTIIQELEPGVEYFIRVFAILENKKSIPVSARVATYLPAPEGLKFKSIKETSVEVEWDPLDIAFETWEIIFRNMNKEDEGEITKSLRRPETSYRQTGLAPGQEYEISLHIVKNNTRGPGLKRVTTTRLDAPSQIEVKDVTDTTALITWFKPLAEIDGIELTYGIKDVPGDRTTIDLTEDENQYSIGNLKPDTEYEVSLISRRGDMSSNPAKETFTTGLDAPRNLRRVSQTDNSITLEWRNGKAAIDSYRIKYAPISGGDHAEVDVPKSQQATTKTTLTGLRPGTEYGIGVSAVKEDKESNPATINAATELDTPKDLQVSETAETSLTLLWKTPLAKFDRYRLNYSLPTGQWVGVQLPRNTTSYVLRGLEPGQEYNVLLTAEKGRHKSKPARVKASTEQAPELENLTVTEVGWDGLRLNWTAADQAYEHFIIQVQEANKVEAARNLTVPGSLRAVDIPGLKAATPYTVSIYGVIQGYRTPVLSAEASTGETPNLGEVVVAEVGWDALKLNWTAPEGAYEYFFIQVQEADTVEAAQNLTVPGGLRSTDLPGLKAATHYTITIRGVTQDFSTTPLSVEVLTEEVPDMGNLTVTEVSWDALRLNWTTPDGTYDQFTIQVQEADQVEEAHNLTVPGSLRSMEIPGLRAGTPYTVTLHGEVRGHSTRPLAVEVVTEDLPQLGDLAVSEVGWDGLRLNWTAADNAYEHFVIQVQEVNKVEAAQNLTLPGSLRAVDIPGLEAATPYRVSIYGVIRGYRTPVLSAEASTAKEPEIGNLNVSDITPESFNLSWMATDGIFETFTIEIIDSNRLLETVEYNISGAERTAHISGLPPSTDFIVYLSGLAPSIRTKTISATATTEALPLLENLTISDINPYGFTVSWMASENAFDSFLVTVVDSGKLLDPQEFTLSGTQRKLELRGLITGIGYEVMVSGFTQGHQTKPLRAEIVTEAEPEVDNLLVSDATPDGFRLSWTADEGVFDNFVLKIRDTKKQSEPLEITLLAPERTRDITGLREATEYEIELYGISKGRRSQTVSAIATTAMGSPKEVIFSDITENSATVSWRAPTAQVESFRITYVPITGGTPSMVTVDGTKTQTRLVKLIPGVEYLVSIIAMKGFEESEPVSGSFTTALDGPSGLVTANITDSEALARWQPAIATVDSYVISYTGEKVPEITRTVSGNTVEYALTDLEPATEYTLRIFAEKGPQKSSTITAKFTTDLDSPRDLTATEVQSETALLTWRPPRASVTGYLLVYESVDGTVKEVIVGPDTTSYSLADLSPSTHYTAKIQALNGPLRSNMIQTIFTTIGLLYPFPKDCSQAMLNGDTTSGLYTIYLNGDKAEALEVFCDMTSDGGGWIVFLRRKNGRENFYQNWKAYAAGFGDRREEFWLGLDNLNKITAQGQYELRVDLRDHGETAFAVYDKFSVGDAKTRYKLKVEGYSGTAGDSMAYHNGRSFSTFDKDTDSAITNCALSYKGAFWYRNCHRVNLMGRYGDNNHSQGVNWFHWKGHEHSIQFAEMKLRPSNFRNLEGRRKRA

Row | Substance | pKd [1] | % of Immunoreactivity [2] [%] | % of Immunoreactivity [3] [%] | % of Immunoreactivity [4] [%] | % of Immunoreactivity [5] [%] | immunoreactivity [6] [%]
1 | BC4 anti-human tenascin monoclonal antibody | 8.31 |  |  |  |  | 
2 | biotinylated BC4 (antibody) |  | 82.4 | 67.2 | 12.6 | 74.4 | 80

From patent US20040005643A1
